assay: yeast display, Sf9 membrane polyspecificity reagent, FACS + sequencing; frameworks hold sequencing errors
Procedure, shortened: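 Nanobodies from a synthetic yeast display library (Saccharomyces cerevisiae BJ5465), induced 36–48 hours with galactose, were stained 1 hour at 4 °C with 10% biotinylated, detergent-solubilized Sf9 membrane reagent, enriched on streptavidin microbeads, then FACS-sorted. Anti-HA (expression) and streptavidin (reagent binding) fluorescence set low and high (top ~1%) gates. Polyreactivity labels come from the gate of origin. Genes were colony-PCR amplified, MiSeq 2 × 250 sequenced and filtered by CDR length.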

Sequence | polyreactivity (PSR sort gate)
QVHLVESGGGLVQAGGSLRLSCAASGTTFGVYALGWYRQAPGKERELVAVITSRGGSTYYADSVKGRFTISRDNAKNTVYLQMNSLKPEDSAVYYCNTSTSRVPGNGEYWGQGTQVTVSS | high polyreactivity
QVHLVESGGGLVQAGGSLRLSCAASVRIFQIYAMGWYRQAPGKERELVATISSGTRTYYADSVKGRFTISRDNAKNTVYLQMISLKPEDTAVYYCAKTYATRHAYWAGTRYEDDYWGQGTQVTVSS | high polyreactivity
QVHLVESGGGLVQAGGSLRLSCAATGSIFRPYAMGWYRQAPGKERELVATITWRGGTTYYADSVKGRFTISRDNAKNTVILQMISLKPEDSAVYYCAAYVPFLTSAYDYWGHGTQVTVSS | low polyreactivity
QVHLVESGGGLVQAGGSLRLSCAATGSTISRYAMGWYRPAPGKERELVAAISWGGNTYYADSVKGRFTISRDNAKNTVYLQMNSLKPEDTAVYYCNRYSKLYNTMDYWGQGTQVTVSS | high polyreactivity
QVHLVESGGGLVQAGGSLRLSCASSGFTFRANAMGWYRPAPGKERELVAVITGSGRTYYAHSVKGRFTISRDNAKNSVYLKMNSLKPEDTAVYYCAARAAYRVSSTGYDSWGQGSQVTVSS | high polyreactivity
QVHLVESGGGLVQAGGSLRLSCPASGSTIRRYAMGWYRQPHGKERELVAAIRQRGTYTYYADSVKGRFTISRDTAKNTVYLQMNSLKPEDTAVYYCSGVPSLWLFNSWGQGTQVTVSS | high polyreactivity
QVHLVESGGGLVQAGGSLRLSCSASGRIFRVYAMGWYRQPPGKERELVAAIDQRGGRTYYADSVKGRFTISRDNAKNTVYLQMNSLKPEDTAVYYCNAEYYVSSLVESEYWGQGSQVTVSS | low polyreactivity
QVHLVESGGGLVQAGGSLRLSCSAYGSIFAYYAMGWYRQAPGKERELVAAIRSSGGSTYYADSVKGRFTISRDNANNTVYLQMNSLKPEVTAVYYCNVASRRIGPYVYWGQGTQVTVSS | high polyreactivity
QVHLVESGGGLVQAGGSLRLSFAADGSSFVRYAMGWYRQAPGKEREFVAAISRTGGSTYYADSVKGRFTLSRDNAKNTVYLQMNSLKQEVTAVFYCDARYIRGYDYWGQGTKVTVSS | high polyreactivity
QVHLVESGGGLVQAGGSLRLSFAASGLIFFVYAMGWYRQAPGIERELVAGIRSSGGSTYYADSVKGRFTISRDNAKNTVYLQMNSLKPEDTAVYYCAARYRYGWAYRKGGDYWGQGTKVTVSS | high polyreactivity
QVHLVESGGGLVQAGGSLRLSLAASGRIFGGYAMGWYRQAPGKERELVAGITNTGDTYYADSVKGRFTISRDNAKNNVYLQMNSLKPEDTAVYYCNAEGDKRRDRYDYWGQGTQVTVSS | low polyreactivity
QVHLVESGGGLVQAGGSLRLSSAASGFICYQYAMGWYRQAPGKERELVAAISRRGGGTYYADSVKGRFTISRDNAKNTVYLEMNRLKPEDTAVYYCNTDRLGRITFGGYDYWGQGTQVTVSS | high polyreactivity
QVHLVESGGGLVQAGGSLRLSSAASGITFYGNAMGWYRQAPGKERELVATISSGGSTNYADSVKGRFTISRDNAKNTVYLQMHSLKPEDTAVYYCNAAPDVNRDYEGSGDYWGQGTQVTVSS | low polyreactivity
QVHLVESGGGLVQAGGSLRLSSAASGRIFSFNAMGWYREAPGKERELVAAISWSNGSTFYADSVKGRFTISRDNAKNTVYLQMNSLKPEETAVYYCATGFPHPKRNVNRRNYWGQGTQVTVSS | high polyreactivity
QVHLVESGGGLVQAGGSLRLSSAASGRTLSRYAMGWYRQAPGKERELGASISWSGGRTYYADSVKGRFTISRDNAKNTVYLQMNSLKPEDTAVYYCAAVYVTAPFDYWGQGTQVTVSS | low polyreactivity
QVHLVESGGGLVQAGGSLRLSSAASGSIFGANAMGWYRQAPGKERELVAAITSGSGTNYADSVKGRFTISRDNSKNTVYLQMNSLKPEDTAVYSCAARHPYPIYDYWGQGTQVTVSS | low polyreactivity
QVHLVESGGGLVQAGGSLRLSSAATGSIIYWYDMGWYRQAPGKERELVAAITNDGDSTYYADSVKGRFTISRDNAKNTVYLQMNSLKPEDTAVYYCAADVLFYYEYGSWGQGTQVTVSS | low polyreactivity
QVHLVESGGGLVQAGGSLRLSSADSGRIFTTYVMGWYRQAPGQESELVAAISARGSTYYADSVKGRFTISRDNAKNTVYLQMNSLKPEDNAVYYCAAGHRLPVYYVYPRATYNYWRQGTQVTVSS | low polyreactivity
QVHLVESGGGLVQAGGSLRLSSADSGRTFAYNAMRWYRPAPGKERELVAAITWSGDSTYYADSVKGRFTISRDNAKNTVYFQMNSLKPEDTEVYYCAADYFGGPSYEFDYWGQGTQVTVSS | low polyreactivity
QVHLVESGGGLVQAGGSLRLTCAASGFTFSDNAMGWYRQAPGKERELVAAISRSGGRTYYADSVKGRFTISRDNAKKTVYLQMNSLKPEDTAVYYCAAYQYGMDYWGQGTQVTVSS | high polyreactivity
QVHLVESGGGLVQAGGSLRLTCAASGSTFGTYAMGWYRPAPGKERELVATIAIGGITYYADSVKGRFTISRDNAKYTVYLQMNSLKPEDTAVDYCAKDVTAPTSRSDPSGDDYWGQGTQVTVSS | low polyreactivity
QVHLVESGGGLVQAGGSLRVSCAASGSIFPYAMGCYRQAPGKEREFVAAITSGVRTNYADSVKGRFTISRDNAKNNVYLQINSLKPEDTAVYYCAARYFPHYYSKYDYWGPGTQVTVSS | low polyreactivity

Sequence | polyreactivity (PSR sort gate)
QVHLVESGGGLVQAGGSLSFSCAASGSNFTFNTMVWYRQAPGKEREKVATISSGGRTYYADSVKGRFTISRDNAKNTVYLQMNSLKPEDTPVFYCNKGYYGYTYVEYNYWGQGTPVTVSS | low polyreactivity
QVHLVESGGGLVQAGRSLPLSCAASGRIFIYNAMGWYRQAPGKERELVAAINRSGVSTHYADSVKGRFTISRDNAKNTVYLQMNSLKPEDTAVYYCARTVYGARSYDYWGQGTQVTVSS | low polyreactivity
QVHLVESGGGLVQAGRSLRLSCAASGSIFYVYAMGWYRQAPGKETQLVATISTGGSTYYADSVKGRFTISRDNAKNTVYLQMNSLKPEDTAVYYCNAQFTPRYWGGYDSWGQGNQVTVSS | low polyreactivity
QVHLVESGGGLVQAGVSLRLSCAASGSTFGHNAMVWYRQAPGKERELVAAISSIGGSTNYADSVKGRFTISRDNAKNTVYFQMNSLKPEDTAVYYCNAGPGLRYVSPYDYWGQGTQVTVSS | low polyreactivity
QVHLVESGGGLVQARGSLRLSCAASGRIFRYYVMGWYRQAPGIERELVAAITSGTSTNYADSVKGRFTISRDNAKNTVYLQMTSLKPEDTAVYYCAVRSPRGGRTRFNSNYWGQGTQVTVSS | high polyreactivity
QVHLVESGGGLVQARGSLRLSCAAYGRIFGRNAMGWYRQAPGKERELVAVITFSGGDTFYADSVKGRFTISRDNAKNTVYLQMNSLKPEDTAVYYCAKSQGFETYRNVSIFGYWGQGTQVTVSS | low polyreactivity
QVHLVESGGSLVQAGGSLRLSCAASGFIFSWYAMGWYRQAPGKERELLAAISHEGGYTYYADSVKGRFTISRDNSKNNVYLQMYSLKPEDTAVYYCAPAFRAAGRSVRYYWGHGTQVTVSS | high polyreactivity
QVHLVESGGVIVQAGGILRLSCAASGNIFTYYVMGWYRQAPGKERELVAAISRRGGSTYYADSVKGRFTISRDIAKNTVYLQMNSLKPEDTAVYYCAKKYPRDMDYWGQVTQVTVSS | high polyreactivity
QVHLVESGGVLVQAGGSLRLSCAASGFILYFNAMGWYIQAPGKERELVAVNTFRSGSTYYADSVKGRFTISRDNAKNTVNLQMNSLKPEDTAVYYCNAQSVLLSLRVELREPHEYWGHGTQVTVSS | low polyreactivity
QVHLVESGGVLVQAGGSLRLSCAASGIALLYYTMGWYRQAPGKERELVAAINSGGRTYYADSVKGRYTISRDNAKNTGYLQMNSLKPDDTAVYFCAAHGGADHMDYWGQGTQVTVSS | high polyreactivity
QVHLVESGRGLVQAGGSLRLSCAASGSTFKIYAMGWYRPAPAKERELVAAITRGGSTNYADSVKGRFTISRDTAKKTVYLQMNSLKPEDTAVYSFAASYWYRRYGTYSYDYWGHGTQVTVSS | high polyreactivity
QVHLVESGRGLVQAGGSLRLSCASSGSIFSRYAMGRYREAPGKVSELVAAISRRGGRTYYADSVKGRFTISRDYAKNTVYLQMKSLKPEVTAVYYCNDRRYNVPHPNRYDYWGQGTQVTVSS | high polyreactivity
QVHLVESGRGLVQSGGSLRLSCADSGSTFATNAMGWYRQAPGKERELVAAITSRGGTYYADSVKRRFTISRDKAKNTVYLQMNSLKPEDTAVYYCNAVSRYAFDYCGQGTQVTVSS | high polyreactivity
QVHLVESGVGLFQAGGSLRLSCAASGIIFRYYTMEWYIQAPGKEREVVAVITRGCSTYYADSVMGRFTISRDNAKYSVYLQMNSLKPVDTAVYFCAALRYKLPLGYWGQGTQVTVSS | high polyreactivity
QVHLVESRGGLDQAGGSLRLSCAASGRTVYQYAMGRNRQAPGKERELVAAITRSGSRTYYADTVKGRFTISRDNAKNTVYLQMNSLKPEDTAVYYCAADGHGGFPIDEYYYWGQGTQVTVSS | high polyreactivity
QVHLVESVGGLVQAGGILRLSCAASGFTFYSYAMGCYRQAPGNERELVAAITRSGGNTYYADSVKGRFTISRDNAKNTVYLQMNSLKPEDTAVYYCDATGKRISPSHYYCGQGTQVTVSS | high polyreactivity
QVHLVESVGGLVQAGGSLRLSCAASGGIFCVYAMGWYRQAPGKERELVAAISNSDTSTSYADSVKGRFTISRDNAKNTVYLQMNCLKPEVTAVYYCNADSPSLSGDYWGQGTQVTVSS | low polyreactivity
QVHLVESVGGLVQAGGSLRLSCAASGRIFYRNAMGCYRQAPGKERELVAAINTGGDGTYYADSVKGRFTISRDNAKNTVYLQMNSLKPEDTAVYYCAADRSSFYWSHGTVYGYDYWGQGTQVTVSS | low polyreactivity
QVHLVETGGALVQAGGSLSISCAASGSIYHGYTMGWYRQAPGKERELVAAINSGDGSTYADSVKGRFTISRDNAKNTVYLQMNSLKQEDTAVYYCAALYAVYWPWYVREYDYWGHGTQVTVSS | low polyreactivity
QVHLVETGGGLLQAGGSLRLSFAASGFTFWRYAMGWSRQAPGKESELVAAISRTGGRTYYADSLKGRFTISRDHAKNTVYLQMNSLNPEDTAVYYCNAPRGYSSTRNGYWGQGTQVTVSS | high polyreactivity
QVHLVQSGGGIVQAGGSLRLSCPASGSIFGYYAMGWYRQPRGKERELVAAITGGGRTYYADSVKGRFTISRDNAKNTVYLQMNSLKPEDTGVYYCTARSTSYRSYWRDYWGQGTHVTVSS | high polyreactivity
